± gives the standard deviation.
Test: protein stability index of a GFP-peptide fusion (GPS, HEK-293T) (PSI 1-6); higher = more stable
Conditions: c terminus: a fixed tail appended
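Further: 24-mer peptide tiles fused after GFP, lentivirally expressed, FACS-sorted into six equal bins by GFP/DsRed ratio, decoded by Illumina sequencing, PSI is the read-weighted mean bin number.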

Sequence | protein stability index (treatment: DMSO) | protein stability index (treatment: MLN4924 1 uM, 8 h)
RLQGLEADCVRGPDGVCLSGGRGP [PBXIP1] | 4.4 ± 0.082 | 4.24 ± 0.32
KEKQSRDFQGRILSVDPEEEREEG [RHOBTB1] | 5.25 ± 0.24 | 5.46 ± 0.55
RHSYQVYRQPIPVQELVLEDLQDG [NET1] | 4.38 ± 0.083 | 4.24 ± 0.24
MKNEKLLSKASEPKYQLFVPQLVT [RNF180] | 2.69 ± 0.3 | 2.82 ± 0.24
QLVNSSADNMLEYKSWLKNLAKEQ [PPEF2] | 3.24 ± 0.17 | 3.77 ± 0.5
QEVTKLQQQVKTNGAGVTVLRREI [FBXO28] | 3.97 ± 0.25 | 4.03 ± 0.45
EPHKCPECGKRFLRSSDLYRHQRL [ZNF449] | 3.96 ± 0.36 | 4.39 ± 0.47
HQGEEEGPLDIWAVVKPGNTKEKI [FBXO34] | 4.6 ± 0.15 | 4.76 ± 0.27
KHLNASNPTEPATIIFTAAREGRE [TOR1AIP2] | 4.13 ± 0.2 | 4.22 ± 0.27
PRGQEGSRQDKPLSPAGSSQEAAD [YJU2B] | 5.54 ± 0.079 | 5.48 ± 0.2
KSQLGFLNVTNYCHLAHELRLSCM [DCAF4] | 3.04 ± 0.41 | 2.57 ± 0.36
QRTHTGEKPYGCIDCGKAFSQKSC [ZNF649] | 3.47 ± 0.27 | 3.87 ± 0.23
RPDKALSEGDLKNAIRVHHALATR [PSD2] | 4.07 ± 0.1 | 4.31 ± 0.3
AAQNGDESSTRLLLEKNASVNEVD [RIPK4] | 5.37 ± 0.24 | 5.48 ± 0.27
RLDFFEKPDYEYLRTLFTDLFEKK [CSNK1G1] | 2.54 ± 0.38 | 2.77 ± 0.41
ETCDLGKIKPEARRYLEKSIKMGK [NLN] | 4.09 ± 0.18 | 4.45 ± 0.23
CTLGICGQGLKSYMTKPSKSLLPH [RTP4] | 2.2 ± 0.3 | 2.21 ± 0.35
HAFPVVTENRGNEKEFMKGNQLIS [CLCN6] | 4.08 ± 0.078 | 4.12 ± 0.067
FMRTDPVCQKLLLDAMNYHLMPFR [KLHL14] | 2.25 ± 0.19 | 2.28 ± 0.3
NVLLFKKQNPGKFCLLSCGILTFL [RETREG3] | 2.43 ± 0.69 | 2.89 ± 0.73
NYTATVRGLRGPNLTSPASITFTT [TNXB] | 2.66 ± 0.23 | 2.79 ± 0.41
SRDEAALPELLLGALPVGSNLTSN [RETREG3] | 4.19 ± 0.23 | 4.43 ± 0.28
WASRREAFAQRPSSAPDLMCLSPD [CDC25B] | 3.85 ± 0.21 | 4.07 ± 0.2
LTERKYKGDSTIRELKAKLSGVEE [SASS6] | 4.18 ± 0.41 | 4.63 ± 0.52
